Measured values: publication PMC5874619, “Enzymatic Preparation of 2,5-Furandicarboxylic Acid (FDCA)—A Substitute of Terephthalic Acid—By the Joined Action of Three Fungal Enzymes” (Microorganisms, 2018)

How the values were obtained:
Test in all cases: HPLC, varied substrate, Michaelis-Menten plot
PostAAO = test system: T1, PostAAO; assay type: biochemical, Pleurotus ostreatus
T1 construct: gene aao

[1] = substrate: O=Cc1ccc(CO)o1; assay type: biochemical, Cyclocybe aegerita; settings: pH 6.0
[2] = substrate: O=Cc1ccc(C=O)o1; assay type: biochemical, Cyclocybe aegerita; settings: pH 6.0

O=Cc1ccc(CO)o1 [HMF, 5-hydroxymethylfurfural]
Km (PostAAO): 7.2 mM

B1: (Cyclocybe aegerita) (protein)
chain: EPGLPPGPLENSSAKLVNDEAHPWKPLRPGDIRGPCPGLNTLASHGYLPRNGVATPVQIINAVQEGLNFDNQAAVFATYAAHLVDGNLITDLLSIGRKTRLTGPDPPPPASVGGLNEHGTFEGDASMTRGDAFFGNNHDFNETLFEQLVDYSNRFGGGKYNLTVAGELRFKRIQDSIATNPNFSFVDFRFFTAYGETTFPANLFVDGRRDDGQLDMDAARSFFQFSRMPDDFFRAPSPRSGTGVEVVIQAHPMQPGRNVGKINSYTVDPTSSDFSTPCLMYEKFVNITVKSLYPNPTVQLRKALNTNLDFFFQGVAAGCTQVFPYGRD
Km [1]: 6.07 mM | kcat [1]: 222 s⁻¹ | kcat/Km [1]: 36600 M⁻¹ s⁻¹ | Km [2]: 0.82 mM | kcat [2]: 29.2 s⁻¹ | kcat/Km [2]: 35600 M⁻¹ s⁻¹
